This is an account of results in article PMC10284872, “FRET analysis of the temperature-induced structural changes in human TRPV3” (Scientific Reports, 2023).

The chains are these.
B1: human TRPV3 single-cysteine construct A131C (cysteine-free background, K169A) (natural protein, UniProt Q8NET8 1-790, looked up)
chain: MKAHPKEMVPLMGKRVAAPSGNPAILPEKRPAEITPTKKSAHFFLEIEGFEPNPTVAKTSPPVFSKPMDSNIRQAISGNADDMDSPQSPQDDVTETPSNPNSPSAQLAKEEQRRKKRRLKKRIFAAVSEGCVEELVELLVELQELARRRHDEDVPDFLMHKLTASDTGATALMKALLNINPNTKEIVRILLAFAEENDILGRFINAEYTEEAYEGQTALNIAIERRQGDIAALLIAAGADVNAHAKGAFFNPKYQHEGFYFGETPLALAAATNQPEIVQLLMEHEQTDITSRDSRGNNILHALVTVAEDFKTQNDFVKRMYDMILLRSGNWELETTRNNDGLTPLQLAAKMGKAEILKYILSREIKEKRLRSLSRKFTDWAYGPVSSSLYDLTNVDTTTDNSVLEITVYNTNIDNRHEMLTLEPLHTLLHMKWKKFAKHMFFLSFLFYFFYNITLTLVSYYRPREEEAIPHPLALTHKMGWLQLLGRMFVLIWAMLISVKEGIAIFLLRPSDLQSILSDAWFHFVFFIQAVLVILSVFLYLFAYKEYLAFLVLAMALGWANMLYYTRGFQSMGMYSVMIQKVILHDVLKFLFVYIVFLLGFGVALASLIEKAPKDNKDASSYGSFSDAVLELFKLTIGLGDLNIQQNSKYPILFLFLLITYVILTFVLLLNMLIALMGETVENVSKESERIWRLQRARTILEFEKMLPEWLRSRFRMGELAKVAEDDFRLALRINEVKWTEWKTHVSFLNEDPGPVRRTDFNKIQDSSRNNSKTTLNAFEEVEEFPETSV
modifications: C131 labelled with sulfo-Cy3 maleimide or sulfo-Cy5 maleimide (1:1 mixture) in the FRET samples
notes: human TRPV3, full length; printed as A131C on the cysteine-free construct, so the native C131 stands again and the other 12 cysteines are replaced; K169A added; Homotetrameric channel in DDM/CHS with lipids; also called hTRPV3 A131C; ARD construct; source: Sf9 cells, baculovirus (Bac-to-Bac), purified (DDM/CHS solubilisation, anti-FLAG resin)
B2: human TRPV3 single-cysteine construct A619C (cysteine-free background, K169A) (natural protein, UniProt Q8NET8 1-790, looked up)
chain: MKAHPKEMVPLMGKRVAAPSGNPAILPEKRPAEITPTKKSAHFFLEIEGFEPNPTVAKTSPPVFSKPMDSNIRQAISGNADDMDSPQSPQDDVTETPSNPNSPSAQLAKEEQRRKKRRLKKRIFAAVSEGAVEELVELLVELQELARRRHDEDVPDFLMHKLTASDTGATALMKALLNINPNTKEIVRILLAFAEENDILGRFINAEYTEEAYEGQTALNIAIERRQGDIAALLIAAGADVNAHAKGAFFNPKYQHEGFYFGETPLALAAATNQPEIVQLLMEHEQTDITSRDSRGNNILHALVTVAEDFKTQNDFVKRMYDMILLRSGNWELETTRNNDGLTPLQLAAKMGKAEILKYILSREIKEKRLRSLSRKFTDWAYGPVSSSLYDLTNVDTTTDNSVLEITVYNTNIDNRHEMLTLEPLHTLLHMKWKKFAKHMFFLSFLFYFFYNITLTLVSYYRPREEEAIPHPLALTHKMGWLQLLGRMFVLIWAMLISVKEGIAIFLLRPSDLQSILSDAWFHFVFFIQAVLVILSVFLYLFAYKEYLAFLVLAMALGWANMLYYTRGFQSMGMYSVMIQKVILHDVLKFLFVYIVFLLGFGVALASLIEKAPKDNKDCSSYGSFSDAVLELFKLTIGLGDLNIQQNSKYPILFLFLLITYVILTFVLLLNMLIALMGETVENVSKESERIWRLQRARTILEFEKMLPEWLRSRFRMGELAKVAEDDFRLALRINEVKWTEWKTHVSFLNEDPGPVRRTDFNKIQDSSRNNSKTTLNAFEEVEEFPETSV
modifications: C619 labelled with sulfo-Cy3 maleimide or sulfo-Cy5 maleimide (1:1 mixture) in the FRET samples
notes: human TRPV3, full length; printed as A619C on the cysteine-free construct, so the native C619 stands again and the other 12 cysteines are replaced; K169A added; Homotetrameric channel in DDM/CHS with lipids; also called hTRPV3 A619C; pore turret construct; source: Sf9 cells, baculovirus (Bac-to-Bac), purified (DDM/CHS solubilisation, anti-FLAG resin)
B3: human TRPV3 single-cysteine construct L513C (cysteine-free background, K169A) (natural protein, UniProt Q8NET8 1-790, looked up)
chain: MKAHPKEMVPLMGKRVAAPSGNPAILPEKRPAEITPTKKSAHFFLEIEGFEPNPTVAKTSPPVFSKPMDSNIRQAISGNADDMDSPQSPQDDVTETPSNPNSPSAQLAKEEQRRKKRRLKKRIFAAVSEGAVEELVELLVELQELARRRHDEDVPDFLMHKLTASDTGATALMKALLNINPNTKEIVRILLAFAEENDILGRFINAEYTEEAYEGQTALNIAIERRQGDIAALLIAAGADVNAHAKGAFFNPKYQHEGFYFGETPLALAAATNQPEIVQLLMEHEQTDITSRDSRGNNILHALVTVAEDFKTQNDFVKRMYDMILLRSGNWELETTRNNDGLTPLQLAAKMGKAEILKYILSREIKEKRLRSLSRKFTDWAYGPVSSSLYDLTNVDTTTDNSVLEITVYNTNIDNRHEMLTLEPLHTLLHMKWKKFAKHMFFLSFLFYFFYNITLTLVSYYRPREEEAIPHPLALTHKMGWLQLLGRMFVLIWAMLISVKEGIAIFLLRPSDCQSILSDAWFHFVFFIQAVLVILSVFLYLFAYKEYLAFLVLAMALGWANMLYYTRGFQSMGMYSVMIQKVILHDVLKFLFVYIVFLLGFGVALASLIEKAPKDNKDASSYGSFSDAVLELFKLTIGLGDLNIQQNSKYPILFLFLLITYVILTFVLLLNMLIALMGETVENVSKESERIWRLQRARTILEFEKMLPEWLRSRFRMGELAKVAEDDFRLALRINEVKWTEWKTHVSFLNEDPGPVRRTDFNKIQDSSRNNSKTTLNAFEEVEEFPETSV
modifications: C513 labelled with sulfo-Cy3 maleimide or sulfo-Cy5 maleimide (1:1 mixture) in the FRET samples
notes: human TRPV3, full length; all 13 native cysteines replaced, L513C and K169A added; Homotetrameric channel in DDM/CHS with lipids; also called hTRPV3 L513C; S2-S3 linker construct; source: Sf9 cells, baculovirus (Bac-to-Bac), purified (DDM/CHS solubilisation, anti-FLAG resin)
B4: human TRPV3 single-cysteine construct A721C (cysteine-free background, K169A) (natural protein, UniProt Q8NET8 1-790, looked up)
chain: MKAHPKEMVPLMGKRVAAPSGNPAILPEKRPAEITPTKKSAHFFLEIEGFEPNPTVAKTSPPVFSKPMDSNIRQAISGNADDMDSPQSPQDDVTETPSNPNSPSAQLAKEEQRRKKRRLKKRIFAAVSEGAVEELVELLVELQELARRRHDEDVPDFLMHKLTASDTGATALMKALLNINPNTKEIVRILLAFAEENDILGRFINAEYTEEAYEGQTALNIAIERRQGDIAALLIAAGADVNAHAKGAFFNPKYQHEGFYFGETPLALAAATNQPEIVQLLMEHEQTDITSRDSRGNNILHALVTVAEDFKTQNDFVKRMYDMILLRSGNWELETTRNNDGLTPLQLAAKMGKAEILKYILSREIKEKRLRSLSRKFTDWAYGPVSSSLYDLTNVDTTTDNSVLEITVYNTNIDNRHEMLTLEPLHTLLHMKWKKFAKHMFFLSFLFYFFYNITLTLVSYYRPREEEAIPHPLALTHKMGWLQLLGRMFVLIWAMLISVKEGIAIFLLRPSDLQSILSDAWFHFVFFIQAVLVILSVFLYLFAYKEYLAFLVLAMALGWANMLYYTRGFQSMGMYSVMIQKVILHDVLKFLFVYIVFLLGFGVALASLIEKAPKDNKDASSYGSFSDAVLELFKLTIGLGDLNIQQNSKYPILFLFLLITYVILTFVLLLNMLIALMGETVENVSKESERIWRLQRARTILEFEKMLPEWLRSRFRMGELCKVAEDDFRLALRINEVKWTEWKTHVSFLNEDPGPVRRTDFNKIQDSSRNNSKTTLNAFEEVEEFPETSV
modifications: C721 labelled with sulfo-Cy3 maleimide or sulfo-Cy5 maleimide (1:1 mixture) in the FRET samples
notes: human TRPV3, full length; printed as A721C on the cysteine-free construct, so the native C721 stands again and the other 12 cysteines are replaced; K169A added; Homotetrameric channel in DDM/CHS with lipids; also called hTRPV3 A721C; C-terminal domain construct; source: Sf9 cells, baculovirus (Bac-to-Bac), purified (DDM/CHS solubilisation, anti-FLAG resin)

What is called stoichiometry N is a count of units in the complex or per binding partner.

This data set deals with the molecule itself. Put plainly: SEC; fluorescence-detection size-exclusion chromatography (FSEC); heat-treated (42 °C) samples of each construct compared with a heat-untreated sample. (SEC sorts molecules by how far they enter the pores of the column.)
For B1, the “stoichiometry N” value turned out to be 4.

In the case of B2, the “stoichiometry N” value stood at 4.

In the case of B3, the “stoichiometry N” value is 4.

In the case of B4, the “stoichiometry N” value came out at 4.
